Eight molecules from article PMC10397247 can be followed below.

Read-outs that look alike come from different tables or passages of the source.

The target of one assay is T1, 4H348-bA.
T1 chain: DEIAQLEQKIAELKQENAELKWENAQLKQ
Nature of the assay: two-hybrid library CCNG1.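 Note: natural log of median RNA to DNA barcode read ratio; higher means stronger binding.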

The target in another assay is T2, 4H40-bA.
T2 chain: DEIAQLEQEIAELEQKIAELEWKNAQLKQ
Description: two-hybrid library CCNG1.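 Note: natural log of median RNA to DNA barcode read ratio; higher means stronger binding.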

For another assay, the target named is T3, 4H477-bA.
T3 chain: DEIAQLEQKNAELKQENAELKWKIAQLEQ
Nature of the assay: two-hybrid library CCNG1.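 Note: natural log of median RNA to DNA barcode read ratio; higher means stronger binding.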

Another assay concerns the target T4, 4H492-bA.
T4 chain: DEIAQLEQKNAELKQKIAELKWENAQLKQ
Description: two-hybrid library CCNG1.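 Note: natural log of median RNA to DNA barcode read ratio; higher means stronger binding.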

The target of a further assay is T5, 4H741-bA.
T5 chain: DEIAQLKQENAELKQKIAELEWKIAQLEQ
Description: two-hybrid library CCNG1.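 Note: natural log of median RNA to DNA barcode read ratio; higher means stronger binding.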

The target of a further assay is T6, 4H3855-bH.
T6 chain: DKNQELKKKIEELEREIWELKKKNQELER
Description: two-hybrid library CCNG1.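 Note: natural log of median RNA to DNA barcode read ratio; higher means stronger binding.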

For another assay, the target named is T7, 4H4001-bH.
T7 chain: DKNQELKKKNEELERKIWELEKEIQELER
Nature of the assay: two-hybrid library CCNG1.

The target in a further assay is T8, 4H454-bH.
T8 chain: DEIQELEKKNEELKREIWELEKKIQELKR
Description: two-hybrid library CCNG1.

Another assay deals with T9, 4H568-bH.
T9 chain: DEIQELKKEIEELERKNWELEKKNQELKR
Description: two-hybrid library CCNG1.

The next assay addresses T10, 4H607-bH.
T10 chain: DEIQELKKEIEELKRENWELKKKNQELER
Description: two-hybrid library CCNG1.

The next assay concerns the target T11, 4H687-bH.
T11 chain: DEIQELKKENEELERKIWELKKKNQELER
Description: two-hybrid library CCNG1.

The next assay deals with T12, 4H717-bH.
T12 chain: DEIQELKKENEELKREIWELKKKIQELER
Nature of the assay: two-hybrid library CCNG1.

For the next assay, the target named is T13, 4H72-bH.
T13 chain: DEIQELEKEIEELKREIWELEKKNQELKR
Description: two-hybrid library CCNG1.

For another assay, the target named is T14, 4H797-bH.
T14 chain: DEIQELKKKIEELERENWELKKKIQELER
Description: two-hybrid library CCNG1.

Another assay has as its target T15, 4H883-bH.
T15 chain: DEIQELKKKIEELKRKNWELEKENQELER
Description: two-hybrid library CCNG1.

The target in the next assay is T16, 4H908-bH.
T16 chain: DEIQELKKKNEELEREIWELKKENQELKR
Description: two-hybrid library CCNG1.

The target in the next assay is T17, 4H918-bH.
T17 chain: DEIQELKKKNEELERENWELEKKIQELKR
Description: two-hybrid library CCNG1.

The target in another assay is T18, 4H953-bH.
T18 chain: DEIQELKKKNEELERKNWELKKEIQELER
Nature of the assay: two-hybrid library CCNG1.

For the next assay, the target named is T19, 4H967-bH.
T19 chain: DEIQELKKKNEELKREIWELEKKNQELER
Description: two-hybrid library CCNG1.

A further assay has as its target T20, O8-bA.
T20 chain: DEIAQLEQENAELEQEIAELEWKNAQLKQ
Nature of the assay: two-hybrid library CCNG1.

The target of another assay is T21, 4H4038-AA.
T21 chain: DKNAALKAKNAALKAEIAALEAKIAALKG
Nature of the assay: two-hybrid library CCmax.

The target in the next assay is T22, 4H43-AA.
T22 chain: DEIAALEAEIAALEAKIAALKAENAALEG
Nature of the assay: two-hybrid library CCmax. The following applies: mean of both orientations.

In the next assay the target is T23, 4H451-AA.
T23 chain: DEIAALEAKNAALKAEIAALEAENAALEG
Nature of the assay: two-hybrid library CCmax. As to conditions: mean of both orientations.

A further assay concerns the target T24, 4H510-AA.
T24 chain: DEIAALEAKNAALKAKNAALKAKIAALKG
Nature of the assay: two-hybrid library CCmax. The following applies: mean of both orientations.

The next assay concerns the target T25, 4H_APH.
T25 chain: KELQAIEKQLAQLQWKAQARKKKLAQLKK
Nature of the assay: two-hybrid library CCmax. As to conditions: mean of both orientations.

The target in the next assay is T26, 4H_BCR.
T26 chain: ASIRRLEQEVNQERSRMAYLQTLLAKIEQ
Nature of the assay: two-hybrid library CCmax. As to conditions: mean of both orientations.

The next assay addresses 4H_GCN4. Nature of the assay: two-hybrid library CCmax.
The next assay concerns the target GCN2_T. Nature of the assay: two-hybrid library CCmax.
Another assay addresses T27, O11-AA.
T27 chain: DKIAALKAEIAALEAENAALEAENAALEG
Nature of the assay: two-hybrid library CCmax. The following applies: mean of both orientations.

The target in another assay is T28, O13-AA.
T28 chain: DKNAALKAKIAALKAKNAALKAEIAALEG
Description: two-hybrid library CCmax. The following applies: mean of both orientations.

The target of the next assay is T29, O14-AA.
T29 chain: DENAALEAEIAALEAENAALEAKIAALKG
Nature of the assay: two-hybrid library CCmax. The following applies: mean of both orientations.

For another assay, the target named is T30, 4H3664-AA.
T30 chain: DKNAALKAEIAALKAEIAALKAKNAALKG
Description: two-hybrid library CCmax.

Another assay addresses T31, 4H369-AA.
T31 chain: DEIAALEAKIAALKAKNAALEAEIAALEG
Nature of the assay: two-hybrid library CCmax. The following applies: mean of both orientations.

Another assay concerns the target T32, 4H3922-AA.
T32 chain: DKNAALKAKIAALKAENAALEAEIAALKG
Description: two-hybrid library CCmax. As to conditions: mean of both orientations.

The target of the next assay is T33, 4H4033-AA.
T33 chain: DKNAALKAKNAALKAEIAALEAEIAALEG
Description: two-hybrid library CCmax. The following applies: mean of both orientations.

The next assay addresses T34, 4H481-AA.
T34 chain: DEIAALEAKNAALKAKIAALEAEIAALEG
Nature of the assay: two-hybrid library CCmax. As to conditions: mean of both orientations.

A further assay addresses T35, 4H55-AA.
T35 chain: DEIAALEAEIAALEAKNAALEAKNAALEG
Nature of the assay: two-hybrid library CCmax. The following applies: mean of both orientations.

In the next assay the target is T36, 4H662-AA.
T36 chain: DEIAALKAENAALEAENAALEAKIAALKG
Nature of the assay: two-hybrid library CCmax. The following applies: mean of both orientations.

In a further assay the target is T37, 4H949-bA.
T37 chain: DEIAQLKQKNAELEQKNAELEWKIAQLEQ
Description: two-hybrid library CCNG1.

A further assay has as its target T38, 4H3381-bN.
T38 chain: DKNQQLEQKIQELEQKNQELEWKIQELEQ
Nature of the assay: two-hybrid library CCNG1.

Another assay has as its target T39, 4H349-bN.
T39 chain: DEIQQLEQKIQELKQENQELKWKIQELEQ
Description: two-hybrid library CCNG1.

The target in a further assay is T40, 4H56-bN.
T40 chain: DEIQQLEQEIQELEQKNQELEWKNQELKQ
Description: two-hybrid library CCNG1.

The target of the next assay is T41, 4H730-bN.
T41 chain: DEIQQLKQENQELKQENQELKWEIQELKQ
Nature of the assay: two-hybrid library CCNG1.

The next assay deals with T42, 4H796-bN.
T42 chain: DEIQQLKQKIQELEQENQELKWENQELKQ
Description: two-hybrid library CCNG1.

The target of another assay is T43, 4H932-bN.
T43 chain: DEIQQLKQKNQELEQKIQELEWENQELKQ
Nature of the assay: two-hybrid library CCNG1.

A further assay addresses T44, 4H949-bN.
T44 chain: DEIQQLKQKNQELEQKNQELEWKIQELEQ
Description: two-hybrid library CCNG1.

For a further assay, the target named is T45, 4H40-bN.
T45 chain: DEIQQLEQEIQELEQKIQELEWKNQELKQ
Description: two-hybrid library CCNG1.

For another assay, the target named is T46, 4H477-bN.
T46 chain: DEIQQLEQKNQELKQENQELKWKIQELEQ
Description: two-hybrid library CCNG1.

A further assay concerns the target T47, 4H492-bN.
T47 chain: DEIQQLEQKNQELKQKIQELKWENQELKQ
Nature of the assay: two-hybrid library CCNG1.

A further assay addresses T48, 4H741-bN.
T48 chain: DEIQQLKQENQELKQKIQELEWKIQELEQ
Nature of the assay: two-hybrid library CCNG1.

The target in another assay is T49, 4H2931-AA.
T49 chain: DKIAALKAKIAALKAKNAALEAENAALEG
Description: two-hybrid library CCmax.

For a further assay, the target named is T50, 4H3001-AA.
T50 chain: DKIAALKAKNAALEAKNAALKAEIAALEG
Nature of the assay: two-hybrid library CCmax. As to conditions: mean of both orientations.

The next assay addresses T51, 4H3015-AA.
T51 chain: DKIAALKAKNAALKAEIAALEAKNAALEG
Description: two-hybrid library CCmax. The following applies: mean of both orientations.

A further assay deals with T52, 4H3073-AA.
T52 chain: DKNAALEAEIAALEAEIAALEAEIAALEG
Description: two-hybrid library CCmax.

Another assay concerns the target T53, 4H3438-AA.
T53 chain: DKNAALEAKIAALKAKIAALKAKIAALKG
Nature of the assay: two-hybrid library CCmax. The following applies: mean of both orientations.

The target in the next assay is T54, 4H347-AA.
T54 chain: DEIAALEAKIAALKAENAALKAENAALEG
Description: two-hybrid library CCmax. As to conditions: mean of both orientations.

A further assay addresses T55, 4H406-AA.
T55 chain: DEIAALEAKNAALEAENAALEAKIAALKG
Description: two-hybrid library CCmax. The following applies: mean of both orientations.

The target in another assay is T56, 4H452-AA.
T56 chain: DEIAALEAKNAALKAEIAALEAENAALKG
Description: two-hybrid library CCmax. As to conditions: mean of both orientations.

For the next assay, the target named is T57, 4H56-AA.
T57 chain: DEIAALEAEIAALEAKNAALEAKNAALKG
Nature of the assay: two-hybrid library CCmax. As to conditions: mean of both orientations.

Chain of 4H_GCN4 (chain, as listed by the source): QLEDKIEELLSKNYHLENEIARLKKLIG

For DEIAQLEQKIAELKQENAELKWENAQLKQ [4H348-bA], the interaction score with 4H348-bA is 0.473; in the assay with 4H40-bA, -0.298; with 4H477-bA, -1.23; with 4H492-bA it was -0.0783; with 4H741-bA, -0.761.
DKNQELKKKIEELEREIWELKKKNQELER [4H3855-bH]: the interaction score was -1.88 with 4H3855-bH; 1.02 in the assay with 4H4001-bH; 0.744 in the assay with 4H454-bH; -2.56 in the assay with 4H568-bH; -1.71 with 4H607-bH; -0.688 with 4H687-bH. The interaction score in the assay with 4H717-bH is -0.607; with 4H72-bH, -1.07; with 4H797-bH, -0.875; with 4H883-bH, 0.413; in the assay with 4H908-bH, -1.26; with 4H918-bH, -0.471. The interaction score is -0.861 with 4H953-bH, -0.847 with 4H967-bH and -2.06 in the assay with O8-bA.
Regarding DKNAALKAKNAALKAEIAALEAKIAALKG [4H4038-AA], the interaction score in the assay with 4H4038-AA is -0.654; with 4H43-AA it was 0.922; in the assay with 4H451-AA, -1.08; in the assay with 4H510-AA it was -1.16; with 4H_APH, -2.34; with 4H_BCR, -1.53. Besides, the interaction score with 4H_GCN4 was -1.46; in the assay with GCN2_T it was -1.9; in the assay with O11-AA, -1.13; with O13-AA, -2.19; with O14-AA, 1.56.
Consider DKNAALKAEIAALKAEIAALKAKNAALKG [4H3664-AA], for which the interaction score with 4H3664-AA was 0.563; with 4H369-AA, -1.44; in the assay with 4H3922-AA it was -1.57; in the assay with 4H4033-AA it was -1.55; with 4H481-AA, -1.04; with 4H55-AA it was -1.04. In addition, in the assay with 4H662-AA, the interaction score was -1.5.
Consider DEIAQLEQEIAELEQKIAELEWKNAQLKQ [4H40-bA], for which the interaction score was 1.76 with 4H40-bA; -1.02 in the assay with 4H477-bA; 1.72 with 4H492-bA; -0.423 with 4H741-bA; -1.8 with 4H949-bA.
Regarding DKNQQLEQKIQELEQKNQELEWKIQELEQ [4H3381-bN], the interaction score with 4H3381-bN is 0.302; in the assay with 4H349-bN, -0.946; with 4H56-bN it was -1.09; in the assay with 4H730-bN, -1.25; with 4H796-bN it was -1.3; with 4H932-bN it was -0.998. In the assay with 4H949-bN, this molecule gave an interaction score of -1.1.
Consider DEIQQLEQEIQELEQKIQELEWKNQELKQ [4H40-bN], for which the interaction score with 4H40-bN is 0.212; in the assay with 4H477-bN, 0.0764; with 4H492-bN, -0.862; with 4H741-bN it was -0.956.
As for DKIAALKAKIAALKAKNAALEAENAALEG [4H2931-AA], the interaction score with 4H2931-AA was -1.66; with 4H3001-AA, -1.79; in the assay with 4H3015-AA it was -2.54; with 4H3073-AA, 0.803; in the assay with 4H3438-AA it was -1.54; in the assay with 4H347-AA it was -1.41. Besides, the interaction score was -0.98 in the assay with 4H406-AA; -1.98 in the assay with 4H452-AA; 1.81 in the assay with 4H56-AA; -1.87 with 4H_APH; -1.73 with 4H_BCR; -2.51 in the assay with 4H_GCN4 (mean of both orientations). The interaction score with GCN2_T was -2.11.
